± gives the uncertainty stated by the source.
B1: Endonuclease CUE2, residues 9 to 47; numbered along this chain, P36075 (parent)
chain: HESKLSILMDMFPAISKSKLQVHLLENNNDLDLTIGLLL

Variants of: B1
Test: abundance fitness (aPCA) (normalised: wild type 0, dead -1); higher = more abundant; growth selection in yeast, the domain comes from the species named
Settings: Saccharomyces cerevisiae (strain ATCC 204508 / S288c)

Going from HESKLSILMDMFPAISKSKLQVPLLENNNDLDLTIGLLL to HESKLSILMDMFPAISKSKLQVELLENNNDLDLTIGLLL, the abundance fitness rises from -0.622 ± 0.11 to -0.163 ± 0.062.

Compared with HESKLSILMDMFPAISKSKLQVWLLENNNDLDLTIGLLL, HESKLSILMDMFPAISKSKLQVRLLENNNDLDLTIGLLL is higher in abundance fitness: -0.305 ± 0.056 for the first, -0.124 ± 0.034 for the second.

HESKLSILMDMFPAISKSKLQVDLLENNNDLDLTIGLLL and HESKLSILMDMFPAISKSKLQVKLLENNNDLDLTIGLLL are within error of each other in abundance fitness: -0.544 ± 0.11 for the first, -0.338 ± 0.1 for the second.

HESKLSILMDMFPAISKSKLQVVLLENNNDLDLTIGLLL and HESKLSILMDMFPAISKSKLQVQLLENNNDLDLTIGLLL are within error of each other in abundance fitness: -0.146 ± 0.037 for the first, -0.151 ± 0.065 for the second.

First: HESKLSILMDMFPAISKSKLQVLLLENNNDLDLTIGLLL
Second: HESKLSILMDMFPAISKSKLQVGLLENNNDLDLTIGLLL
The abundance fitness of the first is higher: -0.139 ± 0.047 for the first, -0.342 ± 0.036 for the second.

Compared with HESKLSILMDMFPAISKSKLQVYLLENNNDLDLTIGLLL, HESKLSILMDMFPAISKSKLQVHWLENNNDLDLTIGLLL is lower in abundance fitness: -0.154 ± 0.23 for the first, -1.05 ± 0.12 for the second.

HESKLSILMDMFPAISKSKLQVHQLENNNDLDLTIGLLL and HESKLSILMDMFPAISKSKLQVHELENNNDLDLTIGLLL are within error of each other in abundance fitness: -1.08 ± 0.42 for the first, -0.88 ± 0.12 for the second.

HESKLSILMDMFPAISKSKLQVHVLENNNDLDLTIGLLL and HESKLSILMDMFPAISKSKLQVHPLENNNDLDLTIGLLL are within error of each other in abundance fitness: -0.849 ± 0.061 for the first, -0.982 ± 0.21 for the second.

First: HESKLSILMDMFPAISKSKLQVHMLENNNDLDLTIGLLL
Second: HESKLSILMDMFPAISKSKLQVHILENNNDLDLTIGLLL
The abundance fitness of the first is higher: -0.31 ± 0.1 for the first, -1 ± 0.24 for the second.

HESKLSILMDMFPAISKSKLQVHRLENNNDLDLTIGLLL and HESKLSILMDMFPAISKSKLQVHGLENNNDLDLTIGLLL are within error of each other in abundance fitness: -0.855 ± 0.066 for the first, -0.929 ± 0.07 for the second.

Going from HESKLSILMDMFPAISKSKLQVHALENNNDLDLTIGLLL to HESKLSILMDMFPAISKSKLQVHTLENNNDLDLTIGLLL, the abundance fitness rises from -0.898 ± 0.091 to -0.595 ± 0.2.

First: HESKLSILMDMFPAISKSKLQVHYLENNNDLDLTIGLLL
Second: HESKLSILMDMFPAISKSRLQVHLLENNNDLDLTIGLLL
The abundance fitness of the first is lower: -0.57 ± 0.4 for the first, -0.01 ± 0.034 for the second.

HESKLSILMDMFPAISKSHLQVHLLENNNDLDLTIGLLL and HESKLSILMDMFPAISKSFLQVHLLENNNDLDLTIGLLL are within error of each other in abundance fitness: -0.151 ± 0.077 for the first, -0.123 ± 0.08 for the second.

HESKLSILMDMFPAISKSELQVHLLENNNDLDLTIGLLL and HESKLSILMDMFPAISKSMLQVHLLENNNDLDLTIGLLL are within error of each other in abundance fitness: -0.053 ± 0.042 for the first, -0.095 ± 0.088 for the second.

First: HESKLSILMDMFPAISKSWLQVHLLENNNDLDLTIGLLL
Second: HESKLSILMDMFPAISKSSLQVHLLENNNDLDLTIGLLL
The abundance fitness of the first is lower: -0.248 ± 0.052 for the first, -0.059 ± 0.041 for the second.

First: HESKLSILMDMFPAISKSQLQVHLLENNNDLDLTIGLLL
Second: HESKLSILMDMFPAISKSYLQVHLLENNNDLDLTIGLLL
The abundance fitness of the first is higher: -0.048 ± 0.044 for the first, -0.364 ± 0.071 for the second.

HESKLSILMDMFPAISKSTLQVHLLENNNDLDLTIGLLL and HESKLSILMDMFPAISKSNLQVHLLENNNDLDLTIGLLL are within error of each other in abundance fitness: -0.015 ± 0.047 for the first, 0.063 ± 0.079 for the second.

Compared with HESKLSILMDMFPAISKSPLQVHLLENNNDLDLTIGLLL, HESKLSILMDMFPAISKSVLQVHLLENNNDLDLTIGLLL is higher in abundance fitness: -0.818 ± 0.08 for the first, -0.038 ± 0.034 for the second.

HESKLSILMDMFPAISKSDLQVHLLENNNDLDLTIGLLL and HESKLSILMDMFPAISKSLLQVHLLENNNDLDLTIGLLL are within error of each other in abundance fitness: -0.081 ± 0.067 for the first, -0.143 ± 0.045 for the second.

First: HESKLSILMDMFPAISKSKCQVHLLENNNDLDLTIGLLL
Second: HESKLSILMDMFPAISKSKVQVHLLENNNDLDLTIGLLL
The abundance fitness of the first is higher: -0.058 ± 0.12 for the first, -0.311 ± 0.048 for the second.

Going from HESKLSILMDMFPAISKSKIQVHLLENNNDLDLTIGLLL to HESKLSILMDMFPAISKSKRQVHLLENNNDLDLTIGLLL, the abundance fitness falls from 0.161 ± 0.19 to -0.853 ± 0.079.

HESKLSILMDMFPAISKSKTQVHLLENNNDLDLTIGLLL and HESKLSILMDMFPAISKSKQQVHLLENNNDLDLTIGLLL are within error of each other in abundance fitness: -0.702 ± 0.16 for the first, -0.705 ± 0.19 for the second.

HESKLSILMDMFPAISKSKHQVHLLENNNDLDLTIGLLL and HESKLSILMDMFPAISKSKSQVHLLENNNDLDLTIGLLL are within error of each other in abundance fitness: -0.559 ± 0.081 for the first, -0.656 ± 0.26 for the second.

HESKLSILMDMFPAISKSKEQVHLLENNNDLDLTIGLLL and HESKLSILMDMFPAISKSKKQVHLLENNNDLDLTIGLLL are within error of each other in abundance fitness: -0.748 ± 0.084 for the first, -0.838 ± 0.2 for the second.

First: HESKLSILMDMFPAISKSKWQVHLLENNNDLDLTIGLLL
Second: HESKLSILMDMFPAISKSKLQVHLKENNNDLDLTIGLLL
The abundance fitness of the first is lower: -0.613 ± 0.058 for the first, -0.126 ± 0.058 for the second.

HESKLSILMDMFPAISKSKLQVHLEENNNDLDLTIGLLL and HESKLSILMDMFPAISKSKLQVHLSENNNDLDLTIGLLL are within error of each other in abundance fitness: 0.041 ± 0.049 for the first, -0.017 ± 0.047 for the second.

First: HESKLSILMDMFPAISKSKLQVHLRENNNDLDLTIGLLL
Second: HESKLSILMDMFPAISKSKLQVHLNENNNDLDLTIGLLL
The abundance fitness of the first is higher: 0.045 ± 0.033 for the first, -0.333 ± 0.28 for the second.

First: HESKLSILMDMFPAISKSKLQVHLWENNNDLDLTIGLLL
Second: HESKLSILMDMFPAISKSKLQVHLTENNNDLDLTIGLLL
The abundance fitness of the first is lower: -0.065 ± 0.04 for the first, 0.048 ± 0.047 for the second.

HESKLSILMDMFPAISKSKLQVHLAENNNDLDLTIGLLL and HESKLSILMDMFPAISKSKLQVHLQENNNDLDLTIGLLL are within error of each other in abundance fitness: 0.076 ± 0.037 for the first, 0.073 ± 0.13 for the second.

First: HESKLSILMDMFPAISKSKLQVHLPENNNDLDLTIGLLL
Second: HESKLSILMDMFPAISKSKLQVHLMENNNDLDLTIGLLL
The abundance fitness of the first is lower: -0.952 ± 0.15 for the first, 0.043 ± 0.044 for the second.

HESKLSILMDMFPAISKSKLQVHLDENNNDLDLTIGLLL and HESKLSILMDMFPAISKSKLQVHLCENNNDLDLTIGLLL are within error of each other in abundance fitness: -0.181 ± 0.19 for the first, -0.002 ± 0.074 for the second.

HESKLSILMDMFPAISKSKLQVHLGENNNDLDLTIGLLL and HESKLSILMDMFPAISKSKLQVHLVENNNDLDLTIGLLL are within error of each other in abundance fitness: 0.001 ± 0.035 for the first, 0.039 ± 0.042 for the second.

Reference: the Human Domainome abundance scans (Beltran et al. 2025)
